The target of this test is SARS-CoV-2 spike protein receptor-binding domain (RBD) (SARS-CoV-2) (UniProt P0DTC2). The test can be described thus: SPR. A general note: Surface plasmon resonance follows binding to a sensor surface in real time, without labels.

The results in this text go back to paper PMC8786865.

By Kd is commonly meant the concentration at which binding is half-saturated. A lower Kd goes with a tighter complex. CR3022 returned a Kd of 11 nM.
